Data on four molecules can be found in patent US20260085114A1 (KYINNO BIOTECHNOLOGY, published 2026).

For assay [1], the target named is T1, human GPRC5D (G protein-coupled receptor class C group 5 member D), on cells (human, UniProt Q9NZD1 1-345).
T1 construct: whole, on cells; also called hGPRC5D
The experiment in a line: FACS, hybridoma supernatant on MM1R cells. (Flow cytometry measures light scatter and fluorescence of single cells or particles in a stream.)

Assay [2] concerns the target T1, human GPRC5D (G protein-coupled …). The experiment in a line: FACS, hybridoma supernatant on OPM2 cells.
Assay [3] addresses T2, Nalm6 cells (NALM6, Kyinno, catalog number KC-0626).
T2 construct: Kept apart from human GPRC5D so that the low MFI values on this line are not laid to the GPRC5D pair
The experiment in a line: FACS, hybridoma supernatant on Nalm6 cells.

Assay [4] has as its target T1, human GPRC5D (G protein-coupled …). The experiment in a line: FACS, hybridoma supernatant on NCI-H929 cells. The protocol: (§1) 100 μl of FACS buffer was then added to each FACS tube for resuspension. 5 μl of PE-labeled, anti-murine Fc tagged secondary antibody (Biolegend, catalog number 409304) was added according to instructions, and incubated at 4° C. in the dark for 30 mins. Then 1 ml of FACS buffer was added, and centrifuged at 1200 rpm at room temperature for 5 mins. The supernatant was discarded followed by washing three times.

The target is the same in assay [5]. The assay can be described thus: FACS, hybridoma supernatant on 293T cells expressing human GPRC5D. The protocol:
(§2) 293T cells expressing human GPRC5D as described above was prepared into a suspension at concentration of 1×10⁵ cells/ml in PBS containing 2% FBS.
(§3) 1 ml of FACS buffer was added to each FACS tube, centrifuged at 1200 rpm for 5 mins. The supernatant was discarded followed by washing three times. At the same time, control tube 1 (no supernatant of the culture and the secondary antibody mentioned below, adding only cell suspension) and control tube 2 (no supernatant of the culture, adding only cell suspension and the secondary antibody mentioned below) were included.
as §1

Assay [6] shares this target. The description is as above. The protocol:
as §2, §3, §1
This is another data set of the same source.

Assay [7] has the same target. The description is as above. The protocol: as §2, §3, §1
The source holds these as a separate data set.

Assay [8] deals with T3, monkey (cyno) GPRC5D, on 293T cells (monkey (cyno)).
T3 construct: whole, on cells; also called monkey GPRC5D
The assay can be described thus: FACS, hybridoma supernatant on 293T cells expressing monkey GPRC5D. The source says:
(§4) According to the method described in Example 4, the binding between the culture supernatant of the hybridoma cells and monkey GPRC5D was detected, except that the human GPRC5D-expressing cells were replaced with 293T cells expressing monkey GPRC5D (Kyinno, catalog number KC-1586).

Assay [9] addresses T3, monkey (cyno) GPRC5D, on 293T cells. The assay is described as above.
From the text: as §4
The source holds these as a separate data set.

Assay [10] addresses T1, human GPRC5D (G protein-coupled …). The assay can be described thus: cell ELISA, hybridoma supernatant on fixed BXPC-3 cells expressing human GPRC5D. As for the experimental part:
BXPC-3 cells expressing human GPRC5D (Kyinno, catalog number KC-1717) were prepared into a suspension at concentration of 1×10⁵ cells/ml in PBS containing 2% FBS. The suspension was added to a 96-well plate at 100 μl/well and cultured overnight at 37° C. The wells were cleared of their contents and washed three times with washing solution. 80 μl of 4% tissue fixative (Beyotime, catalog number P0099) was added to each well followed by fixing at room temperature for 15 min, washing twice with PBS and drying. 250 μl of blocking solution containing 2% BSA was added to each well followed by incubation at 37° C. for 1 hr and washing three times with PBS. 50-100 μl of the supernatant of the hybridoma cell culture was added to each well. A positive control (adding serum from fusion mice), a negative control (adding serum from normal mice) and a blank control (adding culture medium) were included. The wells were incubated at 37° C. for 1-2 hrs, washed, and dried. Then, the enzyme-labeled secondary antibody, HRP-labeled goat anti-mouse IgG (SIGMA, catalog number A9044-2 ml) was added at dilution of 1:10000 and 50-100 μl/well. The wells were incubated at 37° C. for 1-2 hrs, washed, and dried. 50-100 μl of freshly prepared developing solution TMB was added to each well and incubated at 37° C. for 10-30 mins.
2 mol/L H₂SO₄ was added to terminate the reaction, and the OD value was read on an enzyme-linked immunosorbent reader.

Assay [11] has the same target. The experiment in a line: FACS, hybridoma supernatant on 293T cells expressing human GPRC5D. As for the experimental part: as §2, §3, §1
This is another data set of the same source.

Like-named read-outs stand apart in the source and are kept apart here.

T1 sequence (Q9NZD1 whole entry): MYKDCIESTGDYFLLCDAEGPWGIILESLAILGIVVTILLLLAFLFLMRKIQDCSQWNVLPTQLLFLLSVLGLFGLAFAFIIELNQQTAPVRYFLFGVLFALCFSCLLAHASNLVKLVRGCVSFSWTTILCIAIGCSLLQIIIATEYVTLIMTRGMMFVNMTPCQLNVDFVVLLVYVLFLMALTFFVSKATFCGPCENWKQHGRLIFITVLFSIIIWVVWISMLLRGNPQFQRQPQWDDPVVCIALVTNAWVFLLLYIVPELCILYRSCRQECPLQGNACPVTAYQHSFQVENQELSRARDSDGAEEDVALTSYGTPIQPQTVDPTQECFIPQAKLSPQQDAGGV

B1: murine antibody 9D7 (A1 antibody) (antibody, V domains shown)
VH: QVQLKESGPGLVKPSQSLSLTCTVTGYSITSDYAWNWIRQFPGNKLEWMGYISYSGSATYNPSLKSRISITRDTSKNQFFLQLNSMTTEDTATYYCARGGIAGRGRWGAMDYWGQGTSVTVSS
VL: DIVMTQAQKFMSTSVGDRVSVTCKASQNVGTNVAWYQNKPGQSPKALIYSASYRDSGVPDRFTGRGSGTDFTLTISNVQSEDLAEYFCQQYKSYPLTFGAGTKLELK
notes: Tested as hybridoma cell culture supernatant; also called murine anti-9D7
A word on the EC50: it is the concentration needed to bring the measured effect to its halfway point. Consider B1, for which the 50% effective concentration (EC50) stood at 0.104 µg/mL in [1]; 0.177 µg/mL in assay [2]; 0.021 µg/mL in assay [4]; 0.185 µg/mL in assay [5]; 0.183 µg/mL in assay [6]; 0.279 µg/mL in assay [7]. Further, the EC50 in assay [8] is 0.376 µg/mL; in [9], 0.229 µg/mL. For the same molecule, the MFI.Max in assay [1] is 554 MFI; in assay [2], 705 MFI; in [3], 10.8 MFI; in assay [4], 506 MFI; in assay [6] it was 9380 MFI; in [8], 5440 MFI. In addition, in assay [10], the OD value is 0.541 OD.

B2: murine antibody 24F5 (A3 antibody) (antibody, V domains shown)
VH: QVQLKESGPELVKPGASVKISCKASGYTFPYYVMHWVKQKPGQGLEWIGYINPYNDGTKYNEKFKGKAALTSDKSSSTAYMDLSSLTSEDSAVYYCARGGVRRYFDYWGQGTTLTVSS
VL: DIQMTQTPSSLSASLGERVSLTCRASQDIGSNLNWLQQEPDGTIKRLIYATSSLDSGVPKRFSGSRSGSDYSLTISSLESEDFVDYYCLQYATFPYTFGGGTKLEIK
notes: Tested as hybridoma cell culture supernatant; also called murine anti-24F5
Turning to B2, the MFI.Max amounted to 991 MFI in assay [1]; 1190 MFI in [2]; 106 MFI in assay [3]; 1100 MFI in assay [4]; 9520 MFI in assay [6]; 6260 MFI in assay [8]. The half-maximal effective concentration (EC50) in assay [2] was determined as 5.67 µg/mL; in assay [6], 0.117 µg/mL; in assay [8], 0.268 µg/mL. This molecule returned an OD value in assay [10] of 1.54 OD.

B3: murine antibody 6E97 (A4 antibody) (antibody, V domains shown)
VH: QVQLKESGPELVKPGASVKISCKASGYTFPYYVIHWVKQKPGQGLEWIGYINPYNDGTKYNEKFKGKAALTSDKSSSTAYMELSSLTSEDSAVYYCARGGVRRYFDYWGQGTTLTVSS
VL: QIVLTQSPSSLSASLGERVSLTCRASQDIGSNLNWLQQEPDGTIKRLISATSSLDSGVPKRFSGSRSGSDYSLTISSLESEDFVDYFCLQYATFPYTFGGGTKLEIK
notes: Tested as hybridoma cell culture supernatant; also called murine anti-6E97
Turning to B3, the MFI.Max in assay [1] was 931 MFI; in assay [2], 1080 MFI; in assay [3], 62.4 MFI; in assay [4], 900 MFI; in [6], 9610 MFI; in assay [8], 6290 MFI. For the same molecule, the EC50 is 0.291 µg/mL in assay [2], 0.111 µg/mL in assay [6] and 0.243 µg/mL in assay [8]. This molecule also showed an OD value in assay [10] of 1.55 OD.

B4: murine antibody 26D1 (A2 antibody) (antibody, V domains shown)
VH: QVQLKQSGAELAGPGASVKMSCKASGYTFTSYTIQWIKQRPGQGLEWIGYIIPSSGYTNYNQKFKDKATLTADKSSNTAYMQLSSLTSEDSAVYYCANNYGNWGFTYWGQGTLVTVSA
VL: DILMTQSQKFMSTSVRDRVSISCKASQNVGSAVTWYQQKPGQSPRLLIYSASNRYTGVPDRFTGSGSGTDFTLTISNVQSEDLADYFCQQYSNYPLTFGGGTKLEIK
notes: Tested as hybridoma cell culture supernatant; also called murine anti-26D1
For the molecule B4, the values for the concentration for a half-maximal effect (EC50) in [11], in [5] and in assay [8] were 0.788 µg/mL, 0.169 µg/mL and 12.3 µg/mL, respectively. For the same molecule, in [10], the OD value was determined as 0.871 OD.
